These results are taken from patent US20110086806A1 (published 2011).

Experiment [1] deals with T1, recombinant human IL-23R/Fc chimera (R&D Systems) (human, UniProt Q5VWK5 24-355).
T1 construct: Bought; also called rhIL23RFc
T1 sequence (looked up): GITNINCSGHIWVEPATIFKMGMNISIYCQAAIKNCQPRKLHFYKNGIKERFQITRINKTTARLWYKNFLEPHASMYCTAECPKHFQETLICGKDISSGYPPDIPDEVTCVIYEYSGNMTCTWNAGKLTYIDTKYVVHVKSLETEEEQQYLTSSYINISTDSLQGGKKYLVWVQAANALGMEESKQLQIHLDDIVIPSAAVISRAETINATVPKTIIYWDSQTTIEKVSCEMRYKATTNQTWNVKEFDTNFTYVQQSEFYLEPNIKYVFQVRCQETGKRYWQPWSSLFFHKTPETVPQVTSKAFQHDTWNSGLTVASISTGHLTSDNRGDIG
Briefly: competition ELISA vs IL-23. On the procedure: Assays were performed generally as follows. Individual wells in Immulon HB2 plates were incubated overnight at 4° C. with 100 μL PBS containing 100 ng of an anti-human IgG Fc (R&D MAB 110 clone 97924). Plates were washed five times with PBS/0.05% Tween 20, and wells were incubated for 1.5 h at RT with 100 μL each of PBS containing 50 ng of recombinant human IL-23R/Fc. […] Competitor was included at a final concentration of 1 μg/mL. After incubation, plates were washed as described and wells were incubated for 40 min at RT with 100 μL each of PBS containing a 1:5000 dilution of streptavidin-HRP conjugate (Pierce catalog no. 21130). After washing, wells were incubated with 100 μL each of TMB (BioFX Lab catalog no. TMBH-1000-0) for up to 30 min at RT. Reactions were stopped with an equal volume of 0.2 M sulfuric acid.
A number of ATRIMER™ polypeptide complexes were tested in competition ELISA more extensively to determine IC50 values.
A general note: An ELISA detects its analyte on a solid surface through an enzyme-linked reagent.

Experiment [2] concerns the target T1, recombinant human IL-23R/Fc chimera …. Briefly: SPR. The method in brief: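 Recombinant human IL-23R/Fc captured on anti-human IgG Fc CM5 surface (<200 RU); ATRIMER complexes at 1-500 nM injected at 30 μl/min, 3 min association and 5 min dissociation. Kinetic constants fitted from double-referenced sensorgrams.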
Experiment [3] shares this target. Briefly: competition ELISA vs IL-23. The source holds these as a separate data set.
The target of experiment [4] is T2, recombinant human IL-12Rβ2/Fc fusion protein (R&D Systems) (human, UniProt Q99665 24-622, limits assumed).
T2 construct: Bought; also called Il12Rb2
T2 sequence: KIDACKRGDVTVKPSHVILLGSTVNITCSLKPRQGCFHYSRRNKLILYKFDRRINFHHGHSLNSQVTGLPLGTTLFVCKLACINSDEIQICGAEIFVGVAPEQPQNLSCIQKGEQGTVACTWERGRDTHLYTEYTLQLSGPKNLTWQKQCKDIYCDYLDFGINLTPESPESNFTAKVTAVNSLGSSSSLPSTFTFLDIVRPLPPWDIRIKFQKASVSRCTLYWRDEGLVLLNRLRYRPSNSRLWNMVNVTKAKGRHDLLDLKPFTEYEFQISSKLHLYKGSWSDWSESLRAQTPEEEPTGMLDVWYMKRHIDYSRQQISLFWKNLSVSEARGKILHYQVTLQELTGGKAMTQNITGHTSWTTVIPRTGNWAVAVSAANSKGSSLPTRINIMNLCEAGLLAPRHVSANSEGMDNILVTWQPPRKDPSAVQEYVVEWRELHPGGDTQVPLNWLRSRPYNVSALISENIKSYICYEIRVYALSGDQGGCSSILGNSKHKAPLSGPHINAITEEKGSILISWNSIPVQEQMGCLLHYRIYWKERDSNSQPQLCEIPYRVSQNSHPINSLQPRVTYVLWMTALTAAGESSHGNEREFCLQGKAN
Briefly: SPR. On the procedure: (§1) A Biacore 3000 biosensor (GE Healthcare) was used to evaluate the interaction of human IL-12Rβ1/Fc or IL-12Rβ2/Fc with IL-23R binding ATRIMER™ complexes. Immobilization of an anti-human IgG Fc antibody (GE Healthcare) to the CM5 chip (GE Healthcare) was performed using standard amine coupling chemistry, and this modified surface was used to capture recombinant human IL-12Rβ1/Fc or IL-12Rβ2/Fc fusion protein (R&D Systems). A low-density receptor surface, less than 200 RU, was used for all of the analyses. ATRIMER™ complex dilutions (100 nM) were injected over the IL-12R surface at 30 μl/min. Data collection was 3 minutes for the association and 5 minutes for dissociation. The anti-human IgG surface was regenerated with a 30s pulse of 3M magnesium chloride. All sensorgrams were double-referenced against an anti-human IgG Fc antibody surface as well as buffer injections.

The target of experiment [5] is T3, recombinant human IL-12Rβ1/Fc fusion protein (R&D Systems) (human, UniProt P42701 24-540, limits assumed).
T3 construct: Bought; also called Il12Rb1
Briefly: SPR. How it is done: as §1

B1: 056-40.A3C ATRIMER complex (designed binder)
chain: EPPTQKPKKIVNAKKDVVNTKMFEELKSRLDTLAQEVALLKEQQALQTVCLKGTKVHMKCFLAFTQTKTFHEASEDCISRGGTLSTPQTGSENDALYEYLRQSVGNEAEIWLGLNGSATTATWVDMTGARIAYKNWETEITAQPDGGFGYFGENCAVLSGAANGKWFDKRCRDQLPYICQFGIV
modifications: Homotrimer of this chain (ATRIMER complex).
notes: not shown: A possible extra N-terminal Ser from the ompA junction is left out
For the molecule B1, the IC50 in experiment [1] was found to be 1.8 nM. Also, in experiment [2], the Ka turned out to be 5.7e+08 M⁻¹, the Kd was 1.75 nM, the koff is 0.000373 s⁻¹ and the kon turned out to be 213000 M⁻¹ s⁻¹.

B2: 101-113-6C108 ATRIMER complex (designed binder)
chain: EPPTQKPKKIVNAKKDVVNTKMFEELKSRLDTLAQEVALLKEQQALQTVCLKGTKVHMKCFLAFTQTKTFHEASEDCISRGGTLSTPQTGSENDALYEYLRQSVGNEAEIWLGLNGSALTNTWVDMTGARIAYKNWEPPPPHHPMGGFGVFGENCAVLSGAANGKWFDKRCRDQLPYICQFGIV
modifications: Forms a homotrimer through the tetranectin coiled coil; one protomer is given.
notes: not shown: C-terminal tag: His/Myc (pANA4) or HA-StrepII (pANA10)
For B2, in experiment [2], the Ka came to 1.63e+09 M⁻¹, the Kd turned out to be 0.613 nM, the koff came out at 0.000382 s⁻¹ and the kon was 623000 M⁻¹ s⁻¹. Further, the “Ratio IC50 to 056-53.H4E IC50” value in experiment [3] is 0.9. Also, in experiment [4], the binding result is “no binding (tested: 100 nM)”. Further, the binding result in experiment [5] is “no binding (tested: 100 nM)”.

B3: 056-53.H1G ATRIMER complex (designed binder)
chain: EPPTQKPKKIVNAKKDVVNTKMFEELKSRLDTLAQEVALLKEQQALQTVCLKGTKVHMKCFLAFTQTKTFHEASEDCISRGGTLSTPQTGSENDALYEYLRQSVGNEAEIWLGLNSGHWRAVWVDMTGARIAYKNWETEITAQPDGGFGVFGENCAVLSGAANGKWFDKRCRDQLPYICQFGIV
modifications: Homotrimer of this chain (ATRIMER complex).
notes: as for B1
B3: in experiment [1], the IC50 came out at 3.75 nM. In addition, in experiment [2], the Ka was determined as 1.95e+08 M⁻¹, the Kd was 5.13 nM, the koff was 0.000489 s⁻¹ and the kon is 95200 M⁻¹ s⁻¹.

B4: 101-51-1A7 ATRIMER complex (designed binder)
chain: EPPTQKPKKIVNAKKDVVNTKMFEELKSRLDTLAQEVALLKEQQALQTVCLKGTKVHMKCFLAFTQTKTFHEASEDCISRGGTLSTPQTGSENDALYEYLRQSVGNEAEIWLGLNGSALTNTWVDMTGARIAYKNWERPPLYQPGGGWGVFGENCAVLSGAANGKWFDKRCRDQLPYICQFGIV
modifications: Forms a homotrimer through the tetranectin coiled coil; one protomer is given.
notes: as for B2
As for B4, in experiment [2], the Ka came to 2.24e+09 M⁻¹, the Kd was found to be 0.447 nM, the koff is 0.000187 s⁻¹ and the kon came to 419000 M⁻¹ s⁻¹. The “Ratio IC50 to 056-53.H4E IC50” value in experiment [3] turned out to be 1. Further, the binding result in experiment [4] is on record as “no binding (tested: 100 nM)”. In experiment [5], the binding result is “no binding (tested: 100 nM)”.

B5: 101-54-4B6 ATRIMER complex (designed binder)
chain: EPPTQKPKKIVNAKKDVVNTKMFEELKSRLDTLAQEVALLKEQQALQTVCLKGTKVHMKCFLAFTQTKTFHEASEDCISRGGTLSTPQTGSENDALYEYLRQSVGNEAEIWLGLNGSALTNTWVDMTGARIAYKNWEPPGPHHPMGGFGVFGENCAVLSGAANGKWFDKRCRDQLPYICQFGIV
On to B5, for which, in experiment [2], the Ka was 1.76e+09 M⁻¹, the Kd amounted to 0.569 nM, the koff worked out at 0.00039 s⁻¹ and the kon worked out at 687000 M⁻¹ s⁻¹. Also, in experiment [3], the “Ratio IC50 to 056-53.H4E IC50” value came to 0.3. Besides, the binding result in experiment [4] is given as “no binding (tested: 100 nM)”. Besides, the binding result in experiment [5] is reported as “no binding (tested: 100 nM)”.

B6: 056-53.H7H ATRIMER complex (designed binder)
chain: EPPTQKPKKIVNAKKDVVNTKMFEELKSRLDTLAQEVALLKEQQALQTVCLKGTKVHMKCFLAFTQTKTFHEASEDCISRGGTLSTPQTGSENDALYEYLRQSVGNEAEIWLGLNGSSVSDVWVDMTGARIAYKNWETEITAQPDGGFGYFGENCAVLSGAANGKWFDKRCRDQLPYICQFGIV
modifications: Homotrimer of this chain (ATRIMER complex).
notes: as for B1
Consider B6, for which the IC50 in experiment [1] came to 0.53 nM. Moreover, in experiment [2], the Ka came to 6.65e+08 M⁻¹, the Kd was 1.5 nM, the koff stood at 0.000385 s⁻¹ and the kon turned out to be 256000 M⁻¹ s⁻¹.

B7: 056-53.H7B ATRIMER complex (designed binder)
chain: EPPTQKPKKIVNAKKDVVNTKMFEELKSRLDTLAQEVALLKEQQALQTVCLKGTKVHMKCFLAFTQTKTFHEASEDCISRGGTLSTPQTGSENDALYEYLRQSVGNEAEIWLGLNAGRMGLVWVDMTGARIAYKNWETEITAQPDGGWGVFGENCAVLSGAANGKWFDKRCRDQLPYICQFGIV
modifications: non-covalent homotrimer of the one chain given
notes: not shown: Also the single Ser the vector leaves after the ompA signal
Turning to B7, in experiment [1], the IC50 amounted to 0.9 nM. Further, in experiment [2], the Ka was 1.8e+09 M⁻¹, the Kd was determined as 0.557 nM, the koff is 0.00024 s⁻¹ and the kon is 431000 M⁻¹ s⁻¹.

B8: H4E E137A ATRIMER complex (designed binder)
chain: EPPTQKPKKIVNAKKDVVNTKMFEELKSRLDTLAQEVALLKEQQALQTVCLKGTKVHMKCFLAFTQTKTFHEASEDCISRGGTLSTPQTGSENDALYEYLRQSVGNEAEIWLGLNGSALTNTWVDMTGARIAYKNWATEITAQPDGGFGVFGENCAVLSGAANGKWFDKRCRDQLPYICQFGIV
On to B8, for which the binding result in experiment [4] and in experiment [5] was “no binding (tested: 100 nM)” each time.

B9: 056-45.F7F ATRIMER complex (designed binder)
chain: EPPTQKPKKIVNAKKDVVNTKMFEELKSRLDTLAQEVALLKEQQALQTVCLKGTKVHMKCFLAFTQTKTFHEASEDCISRGGTLSTPQTGSENDALYEYLRQSVGNEAEIWLGLNGSATTDTWVDMTGARIAYKNWETEITAQPDGGFGYFGENCAVLSGAANGKWFDKRCRDQLPYICQFGIV
modifications: Homotrimer of this chain (ATRIMER complex).
notes: as for B1
With B9, the IC50 in experiment [1] worked out at 1.45 nM. Besides, in experiment [2], the Ka came to 7.92e+08 M⁻¹, the Kd turned out to be 1.26 nM, the koff was 0.000376 s⁻¹ and the kon came to 298000 M⁻¹ s⁻¹.

B10: 105-08-1A8 ATRIMER complex (designed binder)
chain: EPPTQKPKKIVNAKKDVVNTKMFEELKSRLDTLAQEVALLKEQQALQTVCLKGTKVHMKCFLAFTQTKTFHEASEDCISRGGTLSTPQTGSENDALYEYLRQSVGNEAEIWLGLNGSPRTNTWVDMTGARIAYKNWETEITAQPDGGFGVFGENCAVLSGAANGKWFDKRCRDQLPYICQFGIV
With B10, in experiment [2], the Ka stood at 2.14e+09 M⁻¹, the Kd was 0.467 nM, the koff amounted to 0.000344 s⁻¹ and the kon was found to be 737000 M⁻¹ s⁻¹. Moreover, in experiment [3], the “Ratio IC50 to 056-53.H4E IC50” value was 1.6. Besides, the binding result in experiment [4] was “no binding (tested: 100 nM)”. The binding result in experiment [5] is recorded as “no binding (tested: 100 nM)”.

B11: 101-51-1A4 ATRIMER complex (designed binder)
chain: EPPTQKPKKIVNAKKDVVNTKMFEELKSRLDTLAQEVALLKEQQALQTVCLKGTKVHMKCFLAFTQTKTFHEASEDCISRGGTLSTPQTGSENDALYEYLRQSVGNEAEIWLGLNGSALTNTWVDMTGARIAYKNWERPALVQPRGGFGVFGENCAVLSGAANGKWFDKRCRDQLPYICQFGIV
modifications: Forms a homotrimer through the tetranectin coiled coil; one protomer is given.
notes: as for B2
As for B11, in experiment [2], the Ka amounted to 2.58e+09 M⁻¹, the dissociation constant (Kd) is 0.388 nM, the koff was found to be 0.000395 s⁻¹ and the kon came out at 1.02e+06 M⁻¹ s⁻¹. The “Ratio IC50 to 056-53.H4E IC50” value in experiment [3] stood at 1. Moreover, the binding result in experiment [4] was “no binding (tested: 100 nM)”. Moreover, the binding result in experiment [5] is “no binding (tested: 100 nM)”.

One may read the IC50 as the point on the concentration scale where inhibition reaches its midpoint. For orientation: Kd means the free concentration of one partner at which half of the binding sites on the other are occupied at equilibrium, for simple one-to-one binding. As a reminder, the koff is a measure of how fast the partners let go of each other. For orientation: kon means the second-order rate constant of association.
